Data: WO2019186276A2 (dated 2019)
Where no end group is shown, it is not given here. [ ]: non-standard residue; d: D form. pT = C[C@@H](OP(=O)(O)O)[C@H](N)C(=O)O

B1: monoclonal antibody DC2E2 (antibody, V domains shown)
VH: EVQLQQSGAELVRPGALVKLSCKASGFNIKDYYMHWVRQRPDQGLEWIGWLDPENDHTIYDPRFQDRANLTADTSSNTAYLQLSSLTSEDTAVYYCSYYKYDDYWGQGTTLTVS
VL: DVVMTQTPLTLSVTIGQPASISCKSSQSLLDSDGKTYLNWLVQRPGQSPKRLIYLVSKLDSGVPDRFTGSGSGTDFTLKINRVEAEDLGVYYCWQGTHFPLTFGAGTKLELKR
notes: also called DC2E2 mAb; hybridoma ATCC PTA-124991
B2: monoclonal antibody DC2E7 (antibody, V domains shown)
VH: DVQLVESGGGLVQPGGSRKLSCAASGFTFSSFGMHWVRQAPEKGLEWVAYISGDSNTIYYADTVKGRFTISRDNPKNTLFLQMTSLRSEDTAIYYCARTLAYWGQGTLVTVS
VL: DIQMTQSSSSFSVSLGDRVTITCKASEDIYNRLAWYQQTPGNAPSLLISGASGLETGVPSRFSGSGSGRDYTLSITSLQTEDVATYYCLQYWSIPWTFGGGTKLEIKR
notes: also called hybridoma ATCC PTA-124992

Experiments:
[1] = molecular target: B2; experiment: competition ELISA, peptide in solution with DC2E7, PHF-tau coated plate
[2] = molecular target: B1; experiment: competition ELISA, coated tau 1-242, peptide in solution
[3] = molecular target: recombinant human tau isoform 0N4R (human, UniProt P10636-6 1-383); experiment: direct ELISA, coated recombinant tau, hybridoma supernatant
Sequence of recombinant human tau isoform 0N4R (P10636 other isoform, or with tags, fused parts or gaps limits assumed): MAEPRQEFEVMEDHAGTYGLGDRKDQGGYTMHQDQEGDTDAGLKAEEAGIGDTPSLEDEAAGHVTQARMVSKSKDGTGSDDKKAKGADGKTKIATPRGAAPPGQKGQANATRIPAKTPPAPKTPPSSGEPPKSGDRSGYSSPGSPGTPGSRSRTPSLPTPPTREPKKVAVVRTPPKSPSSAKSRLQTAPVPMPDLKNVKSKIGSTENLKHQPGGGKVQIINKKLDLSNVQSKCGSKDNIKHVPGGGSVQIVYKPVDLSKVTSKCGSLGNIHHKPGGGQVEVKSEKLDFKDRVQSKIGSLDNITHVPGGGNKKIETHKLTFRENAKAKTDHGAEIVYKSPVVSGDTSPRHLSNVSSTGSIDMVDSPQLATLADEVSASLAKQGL

tau 99-441 = tau 99-441 (human, UniProt P10636 99-758); experiment: as above
[4] = molecular target: recombinant human tau isoform 0N3R (human, UniProt P10636-2 1-352); experiment: as above
[5] = molecular target: recombinant human tau isoform 1N3R (human, UniProt P10636-4 1-381); experiment: as above
Sequence of recombinant human tau isoform 1N3R (P10636 other isoform, or with tags, fused parts or gaps limits assumed): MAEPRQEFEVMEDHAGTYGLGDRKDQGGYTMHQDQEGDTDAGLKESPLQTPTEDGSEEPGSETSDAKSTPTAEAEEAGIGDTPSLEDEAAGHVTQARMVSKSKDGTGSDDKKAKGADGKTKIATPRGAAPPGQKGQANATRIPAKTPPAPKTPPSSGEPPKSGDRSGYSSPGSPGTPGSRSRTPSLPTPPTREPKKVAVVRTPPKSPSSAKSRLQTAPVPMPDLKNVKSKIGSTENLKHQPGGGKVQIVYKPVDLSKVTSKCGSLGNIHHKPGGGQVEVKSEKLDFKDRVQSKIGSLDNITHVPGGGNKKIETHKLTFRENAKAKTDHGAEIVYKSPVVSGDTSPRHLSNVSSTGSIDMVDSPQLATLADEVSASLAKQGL

[6] = molecular target: recombinant human tau isoform 2N3R (human, UniProt P10636-5 1-410); experiment: as above
Sequence of recombinant human tau isoform 2N3R (P10636 other isoform, or with tags, fused parts or gaps limits assumed): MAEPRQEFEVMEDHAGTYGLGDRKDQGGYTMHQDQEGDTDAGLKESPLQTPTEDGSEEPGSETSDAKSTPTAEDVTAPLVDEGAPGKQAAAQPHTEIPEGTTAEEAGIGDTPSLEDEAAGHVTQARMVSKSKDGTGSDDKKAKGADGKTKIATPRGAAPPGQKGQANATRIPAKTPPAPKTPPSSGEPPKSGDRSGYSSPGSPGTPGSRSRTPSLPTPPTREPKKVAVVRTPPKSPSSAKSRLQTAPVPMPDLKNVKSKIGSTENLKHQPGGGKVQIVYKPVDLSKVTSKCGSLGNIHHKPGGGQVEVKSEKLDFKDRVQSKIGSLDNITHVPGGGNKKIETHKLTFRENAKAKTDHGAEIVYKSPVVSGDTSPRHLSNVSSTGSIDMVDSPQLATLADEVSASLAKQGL

tau 127-441 = tau 127-441 (human, UniProt P10636 378-758); experiment: as above
Sequence of tau 127-441 (P10636 other isoform, or with tags, fused parts or gaps): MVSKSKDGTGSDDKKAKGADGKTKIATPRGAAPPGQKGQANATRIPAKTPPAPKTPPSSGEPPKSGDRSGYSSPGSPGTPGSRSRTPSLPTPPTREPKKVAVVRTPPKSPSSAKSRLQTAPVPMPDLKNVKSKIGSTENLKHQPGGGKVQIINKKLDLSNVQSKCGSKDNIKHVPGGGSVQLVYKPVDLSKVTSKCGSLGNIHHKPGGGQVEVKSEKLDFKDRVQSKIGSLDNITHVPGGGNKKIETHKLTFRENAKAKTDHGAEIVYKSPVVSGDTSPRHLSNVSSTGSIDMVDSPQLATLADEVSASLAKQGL

[7] = molecular target: recombinant human tau isoform 1N4R (human, UniProt P10636-7 1-412); experiment: as above
Sequence of recombinant human tau isoform 1N4R (P10636 other isoform, or with tags, fused parts or gaps limits assumed): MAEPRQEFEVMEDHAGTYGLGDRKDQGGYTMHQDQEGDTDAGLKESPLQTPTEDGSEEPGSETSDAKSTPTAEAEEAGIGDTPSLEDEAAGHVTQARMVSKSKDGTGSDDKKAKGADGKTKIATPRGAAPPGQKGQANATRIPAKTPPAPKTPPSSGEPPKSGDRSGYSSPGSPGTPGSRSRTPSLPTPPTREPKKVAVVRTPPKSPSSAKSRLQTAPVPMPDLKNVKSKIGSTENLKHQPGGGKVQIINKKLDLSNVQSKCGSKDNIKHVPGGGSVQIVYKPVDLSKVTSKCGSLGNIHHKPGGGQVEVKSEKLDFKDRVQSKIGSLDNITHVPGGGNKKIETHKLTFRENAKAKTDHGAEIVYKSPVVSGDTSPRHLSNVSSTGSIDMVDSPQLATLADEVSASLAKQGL

tau 31-441 = tau 31-441 (human, UniProt P10636 31-758); experiment: as above
Sequence of tau 31-441 (P10636 other isoform, or with tags, fused parts or gaps): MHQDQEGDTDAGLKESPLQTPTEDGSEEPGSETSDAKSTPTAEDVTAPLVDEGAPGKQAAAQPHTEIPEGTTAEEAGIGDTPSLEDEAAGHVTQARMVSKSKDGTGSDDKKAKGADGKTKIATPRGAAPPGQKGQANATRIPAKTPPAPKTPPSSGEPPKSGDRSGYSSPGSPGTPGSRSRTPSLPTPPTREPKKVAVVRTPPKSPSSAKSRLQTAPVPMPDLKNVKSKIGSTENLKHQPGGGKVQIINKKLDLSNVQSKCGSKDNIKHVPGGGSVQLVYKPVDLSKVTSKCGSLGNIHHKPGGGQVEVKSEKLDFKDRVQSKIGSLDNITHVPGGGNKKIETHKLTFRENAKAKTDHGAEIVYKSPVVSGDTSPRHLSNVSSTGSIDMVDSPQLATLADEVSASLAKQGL

tau 1-226 = tau 1-226 (human, UniProt P10636 1-543); experiment: as above
Sequence of tau 1-226 (P10636 other isoform, or with tags, fused parts or gaps): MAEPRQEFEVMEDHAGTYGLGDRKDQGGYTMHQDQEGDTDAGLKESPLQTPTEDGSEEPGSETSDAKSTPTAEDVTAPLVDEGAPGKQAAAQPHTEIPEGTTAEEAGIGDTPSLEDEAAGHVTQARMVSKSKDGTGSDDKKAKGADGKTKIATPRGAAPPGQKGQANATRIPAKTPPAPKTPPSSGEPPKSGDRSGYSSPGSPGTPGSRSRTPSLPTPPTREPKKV

tau151-391 = tau151-391 (human, UniProt P10636 468-708); experiment: as above
Sequence of tau151-391 (P10636 468-708 I625L): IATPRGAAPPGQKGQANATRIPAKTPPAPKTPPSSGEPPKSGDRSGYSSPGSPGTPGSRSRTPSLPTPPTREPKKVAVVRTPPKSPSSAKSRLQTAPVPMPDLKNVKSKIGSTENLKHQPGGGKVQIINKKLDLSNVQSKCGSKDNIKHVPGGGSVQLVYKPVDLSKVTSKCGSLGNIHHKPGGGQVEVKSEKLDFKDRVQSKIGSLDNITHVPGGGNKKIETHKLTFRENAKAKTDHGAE

tau 1-136 = tau 1-136 (human, UniProt P10636 1-387); experiment: direct ELISA, coated recombinant tau (5 ug/ml), hybridoma supernatant
tau 2N4R(A134-168) = molecular target: T1, tau 2N4R(A134-168) (human, UniProt P10636 1-758); experiment: as above
T1 construct: The printed 'A' is read as the delta sign (deletion of 134-168); also called tau 2N4R with residues 134-168 deleted
T1 sequence (P10636 other isoform, or with tags, fused parts or gaps): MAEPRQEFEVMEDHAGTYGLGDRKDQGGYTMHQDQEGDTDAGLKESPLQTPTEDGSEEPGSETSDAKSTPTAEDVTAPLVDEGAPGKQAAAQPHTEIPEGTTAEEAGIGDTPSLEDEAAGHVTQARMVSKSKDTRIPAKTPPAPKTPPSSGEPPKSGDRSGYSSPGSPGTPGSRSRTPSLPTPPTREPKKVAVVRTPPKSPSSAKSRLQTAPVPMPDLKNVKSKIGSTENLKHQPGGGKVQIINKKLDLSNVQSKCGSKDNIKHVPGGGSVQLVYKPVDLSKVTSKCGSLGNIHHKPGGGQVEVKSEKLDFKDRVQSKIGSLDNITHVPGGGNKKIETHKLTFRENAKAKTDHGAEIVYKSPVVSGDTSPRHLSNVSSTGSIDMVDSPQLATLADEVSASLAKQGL

tau 221-441 = molecular target: T2, tau 221-441 (human, UniProt P10636 538-758); experiment: as above
T2 construct: Unphosphorylated form used in the DC2E2 ELISA

[8] = molecular target: T3, in vitro phosphorylated tau 2N4R (human, UniProt P10636 1-758, in vitro phosphorylated with rat brain kinase extract; sites not determined); experiment: immunoblot
T3 construct: also called phosphorylated 2N4R; 2N4R in vitro phosphorylated
T3 sequence (P10636 other isoform, or with tags, fused parts or gaps limits assumed): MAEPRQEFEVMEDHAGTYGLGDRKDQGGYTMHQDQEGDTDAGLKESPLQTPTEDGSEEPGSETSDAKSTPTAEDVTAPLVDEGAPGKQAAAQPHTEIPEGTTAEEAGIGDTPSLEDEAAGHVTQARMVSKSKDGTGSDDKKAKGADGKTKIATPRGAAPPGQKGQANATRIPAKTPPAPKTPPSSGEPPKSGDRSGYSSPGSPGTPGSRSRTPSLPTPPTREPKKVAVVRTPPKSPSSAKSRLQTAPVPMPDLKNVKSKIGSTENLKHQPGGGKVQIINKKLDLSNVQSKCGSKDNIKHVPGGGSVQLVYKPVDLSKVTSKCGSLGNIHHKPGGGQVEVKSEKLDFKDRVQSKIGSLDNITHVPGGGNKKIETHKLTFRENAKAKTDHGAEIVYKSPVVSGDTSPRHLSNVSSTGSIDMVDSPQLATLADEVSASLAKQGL

[9] = molecular target: in vitro phosphorylated tau151-391 (human, UniProt P10636 468-708, in vitro phosphorylated with rat brain kinase extract; sites not determined); experiment: immunoblot
Sequence of in vitro phosphorylated tau151-391 (P10636 468-708 I625L): as the sequence (P10636 468-708 I625L) above

[10] = molecular target: T4, recombinant human full-length tau 2N4R (human, UniProt P10636 1-758); experiment: immunoblot
T4 construct: Expressed in E. coli, unphosphorylated; also called tau441; physiological tau (2N4R)

tau 1-242 = molecular target: T5, tau 1-242 (human, UniProt P10636 1-559); experiment: ELISA screen of hybridoma supernatants on coated tau 1-242
T5 construct: Deletion mutant numbered on tau 2N4R

[11] = molecular target: phosphorylated tau 221-441 (human, UniProt P10636 538-758, in vitro phosphorylated with rat brain kinase extract; sites not determined); experiment: immunoblot of in vitro phosphorylated deletion mutants
[12] = molecular target: phosphorylated tau 2N4R point mutant Thr217Ala (human, UniProt P10636 1-758, in vitro phosphorylated with rat brain kinase extract; sites not determined); experiment: immunoblot of in vitro phosphorylated point mutants
Sequence of phosphorylated tau 2N4R point mutant Thr217Ala (P10636 other isoform, or with tags, fused parts or gaps T217A T217A limits assumed): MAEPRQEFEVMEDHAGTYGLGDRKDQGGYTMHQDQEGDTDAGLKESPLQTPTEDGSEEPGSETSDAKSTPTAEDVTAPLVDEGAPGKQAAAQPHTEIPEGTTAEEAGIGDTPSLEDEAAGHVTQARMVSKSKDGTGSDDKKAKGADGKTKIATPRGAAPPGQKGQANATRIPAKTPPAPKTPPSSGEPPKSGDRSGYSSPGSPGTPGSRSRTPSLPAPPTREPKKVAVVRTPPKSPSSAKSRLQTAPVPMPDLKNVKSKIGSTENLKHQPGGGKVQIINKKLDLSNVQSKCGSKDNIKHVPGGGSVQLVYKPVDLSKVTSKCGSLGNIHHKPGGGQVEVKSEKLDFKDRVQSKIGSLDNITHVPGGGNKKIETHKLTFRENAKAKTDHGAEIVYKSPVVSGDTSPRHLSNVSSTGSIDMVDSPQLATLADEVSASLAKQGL

[13] = molecular target: B1; experiment: competition ELISA, coated tau 1-242, peptide in solution with purified DC2E2

SR[pT]PSLP[pT]P (Synthetic peptide (EZBiolabs)) [peptide tau 210-218/pT212/pT217]: no binding [1].

TPPSSGEPPKSGDRSGYSSPGSPGTPGSRS (Synthetic peptide (EZBiolabs)) [peptide tau 181-210]: no binding [2].

B1: binds [3]; binds (tau 99-441); binds [4]. B1: binds [5]; binds [6]; binds (tau 127-441). B1: binds [7]; binds (tau 31-441); binds (tau 1-226). B1: binds (tau151-391); no binding (tau 1-136); no binding (tau 2N4R(A134-168)). B1: no binding (tau 221-441); binds [8]; binds [9]. B1: binds [10]; binds (tau 1-242).

SR[pT]PSLP[pT]PP (Synthetic peptide (EZBiolabs)) [peptide tau 210-219/pT212/pT217]: no binding [1].

B2: no binding [11]; no binding [12].

SR[pT]PSLP[pT]PPT (Synthetic peptide (EZBiolabs)) [peptide tau 210-220/pT212/pT217]: no binding [1].

GQKGQANATRIPAKTPPAPKTPPSSGEPPK (Synthetic peptide (EZBiolabs)) [peptide tau 161-190]: binds [13].

KAKGADGKTKIATPRGAAPPGQKGQANATR (Synthetic peptide (EZBiolabs)) [peptide tau 141-170]: no binding [2].

IPAKTPPAPKTPPSSGEPPKSGDRSGYSSP (Synthetic peptide (EZBiolabs)) [peptide tau 171-200]: no binding [2].
